Laboratory results published in patent US20170369592A1, “NOVEL ANTI-FIBROBLAST ACTIVATION PROTEIN (FAP) ANTIBODIES AND USES DERIVED THEREOF” (Mabimmune Diagnostics AG, priority 2015, published 2017).

Columns and labels:
[1] = biological target: directly coated FAP peptides mixture (cFAP); assay: Direct ELISA, mixture of FAP-specific peptides directly coated; assay type: binding, human; settings: non-linear regression
Method: ELISA assays were performed with varying antibody concentrations to validate the binding of the exemplary antibodies of the present invention to FAP and to be able to determine their half maximal effective concentration (EC50). For the exemplary recombinant human NI-206.82C2, NI-206.59B4, NI-206.22F7, NI-206.27E8, NI-206.12G4 and NI-206.17A6 antibodies, 96-well microplates (Costar, Corning, USA) were coated with FAP, with a mixture of the 3 peptides or with BSA (Sigma-Aldrich, Buchs, Switzerland) diluted to a concentration of 5 μg/ml in carbonate ELISA coating buffer (15 mM Na2CO3, 35 mM NaHCO3, pH 9.4) for the direct ELISA. For the capture ELISA, the microplates were coated with mouse anti-His monoclonal antibody (Clontech) diluted to a concentration of 3 μg/ml in PBS, the plates were then blocked, FAP or BSA were diluted to a concentration of 2 μg/ml in PBS and added to the plates to be captured. The binding efficiency of the antibodies was then tested. The exemplary NI-206.82C2 antibody specifically and strongly binds to the captured FAP and less efficiently to the directly coated FAP. The exemplary NI-206.59B4 antibody specifically, strongly and similarly binds to the captured FAP and to the directly coated FAP.
The EC50 values were estimated by a non-linear regression using GraphPad Prism (San Diego, USA) software. […] The binding of NI-206.12G4 towards sFAP was not tested.

[2] = biological target: T1, FAP (Homo sapiens, UniProt Q12884); assay: Binding specificity ELISA versus CD26 and unrelated human antigens; settings: detection antibody at 20, 4 and 0.8 nM
T1 sequence (Q12884 1-760): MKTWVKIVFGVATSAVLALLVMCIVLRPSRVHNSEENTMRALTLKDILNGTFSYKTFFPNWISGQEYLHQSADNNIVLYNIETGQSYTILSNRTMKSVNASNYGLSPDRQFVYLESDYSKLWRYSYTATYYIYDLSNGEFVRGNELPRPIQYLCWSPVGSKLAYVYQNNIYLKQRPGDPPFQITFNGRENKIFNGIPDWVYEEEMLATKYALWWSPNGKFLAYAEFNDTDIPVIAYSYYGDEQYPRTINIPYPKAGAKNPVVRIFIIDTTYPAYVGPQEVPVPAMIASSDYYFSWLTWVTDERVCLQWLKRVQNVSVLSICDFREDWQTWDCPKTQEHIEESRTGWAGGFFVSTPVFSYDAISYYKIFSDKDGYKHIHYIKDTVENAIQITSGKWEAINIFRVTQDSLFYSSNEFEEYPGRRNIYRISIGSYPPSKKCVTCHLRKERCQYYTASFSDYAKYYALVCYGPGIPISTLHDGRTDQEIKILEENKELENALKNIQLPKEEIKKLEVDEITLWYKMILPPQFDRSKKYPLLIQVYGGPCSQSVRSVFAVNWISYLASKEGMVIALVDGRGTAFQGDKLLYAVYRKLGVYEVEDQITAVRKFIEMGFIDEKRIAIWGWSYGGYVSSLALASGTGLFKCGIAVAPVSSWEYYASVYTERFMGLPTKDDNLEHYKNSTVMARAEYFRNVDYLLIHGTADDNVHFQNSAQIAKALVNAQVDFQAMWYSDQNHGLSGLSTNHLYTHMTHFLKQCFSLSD
Method: A mouse anti-6×-histidine tag antibody (Clonetech) was coated at a concentration of 3 μg/ml in PBS to a 96 well ELISA plate, the plates were then blocked with 5% BSA in PBS, and enzymatically active recombinant human FAP with an N-terminus 6× histidine tag was added to the plates to be captured. The binding efficiency of NI-206.82C2 (at 20 nM, 4 nM, and 0.8 nM) against sFAP was then tested by 1 hour incubation, followed by washing with PBS and detection with an HRP-labelled goat anti-human antibody (Jackson Immunoresearch) using a colormetric assay. To assess NI-206.82C2 binding other targets, recombinant human CD26 and fourteen other unrelated recombinant human proteins (A-N) were individually added to a 96-well ELISA plate in triplicate, and the binding efficacy of NI-206.82C2 was evaluated. (FIG. 7A)

[3] = system: human invasive ductal carcinoma and invasive lobular carcinoma sections; assay: Confocal immunofluorescence on human carcinoma cryosections; settings: Cyanine 3 labelled antibody
Method: NI-206.82C2 was labelled with Cyanine 3 for fluorescent imaging (Cy3 conjugation kit: Innova Biosciences, 340-0030) and antibody labelling was validated using a spectophotometer. Cryosections from human invasive ductal carcinoma tissues (FIG. 9, A) and invasive lobular carcinoma (FIG. 9, B) were fixed for 5 minutes in ice cold acetone and allowed to dry for 10 minutes before washing in PBS. The sections were then incubated for 1 hr at room temperature in 5% BSA in PBS. The tissue sections were then incubated with Cyanine 3 prelabelled antibodies overnight at 4° C., and then washed three times in PBS before incubation with DAPI at 0.5 μg/mL. Sections were then washed three additional times in PBS and mounted in Lisbeth's mounting medium before imaging on a SP8 confocal microscope (Leica Microsystems).

[4] = system: multiple myeloma cells and tumor stroma in the syngeneic MOPC315.BM mouse model; assay: Immunofluorescence on murine multiple myeloma tissues; settings: Cy5 labelled antibody, MOPC315.BM BALB/c mice
Method: BALB/c mice were injected with 2×10^6 of the murine multiple myeloma cell line […] intravenously. BALB/c mice were injected with a vehicle-only control. Bone tissue was harvested and fixed in 4% PFA, decalcified in 10% EDTA (pH 7.4), embedded in paraffin before being sectioned (4 μm) and rehydrated. Then, CD138 mAb (Clone 281-2, BD Pharmingen) and Cy5 labelled NI-206.82C2 were used to identify MOPC315.BM.Luc cell infiltration, and NI-206.82C2 binding to these cells and surrounding stromal cells in the tissue sections. Stained tissue sections were then imaged using a fluorescent microscope (FIG. 13).

[5] = system: obstructive human coronary thrombi and aortic atherosclerotic plaque; assay: Confocal immunofluorescence on coronary thrombi and atherosclerotic plaque; settings: Cyanine 3 labelled antibody
Method: NI-206.82C2 was labelled with Cyanine 3 for fluorescent imaging (Cy3 conjugation kit: Innova Biosciences, 340-0030) and antibody labelling was validated using a spectophotometer. Cryosections from myocardial infarction causing obstructive human coronary thrombi (FIG. 14, A) and human aortic atherosclerotic plaque (FIG. 14, B) were fixed for 5 minutes in ice cold acetone and allowed to dry for 10 minutes before washing in PBS. The sections were then incubated for 1 hr at room temperature in 5% BSA in PBS, and then incubated with Cyanine 3 labelled antibodies overnight at 4° C., before washing three times in PBS before incubation with DAPI at 0.5 μg/mL. Sections were then washed three additional times in PBS and mounted in Lisbeth's mounting medium before imaging on a SP8 confocal microscope (Leica Microsystems).

- EC50, binding to directly coated FAP peptides mixture (cFAP) [1]: did not show any binding
- colorimetric signal against recombinant human FAP versus CD26 and unrelated human antigens [2]: significantly greater
- binding to human invasive ductal carcinoma and invasive lobular carcinoma sections [3]: specifically binds
- binding to obstructive human coronary thrombi and aortic atherosclerotic plaque [5]: binds
B1: NI-206.82C2: recombinant human memory B cell-derived monoclonal anti-FAP IgG1 antibody, variable regions in FIG. 1A, FAP inhibitory (antibody, V domains shown)
VH: QVQLQQSGPGLVKPSQTLSLTCAISGDSVSSNSVTWNWIRQSPSRGLEWLGRTYYRSKWYNDYAVSVKGRITINPDTSKNQFYLQLKSVTPEDAAVYYCARDSSILYGDYWGQGTLVTVSS
VL: QAVLTQPSSLSASPGASASLTCTLPSGINVGTYRIFWFQQKPGSPPQYLLSYKSDSDNHQGSGVPSRFSGSKDASANAGILLISGLQSEDEADYYCMIWHSSAWVFGGGTKLTVL
- binding to multiple myeloma cells and tumor stroma [4]: binds
